# In patent publication US20040229826A1, “Dose-dense & sequential adjuvant cancer chemotherapy” (priority 2002, published 2004):
# B1: filgrastim (protein, chains of the INN, looked up)
# chain: MTPLGPASSLPQSFLLKCLEQVRKIQGDGAALQEKLCATYKLCHPEELVLLGHSLGIPWAPLSSCPSQALQLAGCLSQLHSGLFLYQGLLQALEGISPELGPTLDTLQLDVADFATTIWQQMEELGMAPALQPTQGAMPAFASAFQRRAGGVLVASHLQSFLEVSYRVLRHLAQP
# Description: Designed for outpatients, all chemotherapy (FIG. 1) was given intravenously, starting within 84 days from primary surgery. […]
# Disease-free survival (DFS), which was the primary study endpoint, was measured from study entry until local recurrence, distant relapse or death without relapse, whichever occurred first. […] The secondary endpoint of overall survival (OS) was measured from study entry until death from any cause; surviving patients were censored at the date of last contact. […]
molecule,measurement,setting,value
B1,incidence of leukemia,influence of filgrastim,not influenced
same,granulocyte toxicity,use of filgrastim in the dose dense regimens,statistically significant decrease
